Results on 5 compounds are retold here after patent US10654927B2, “Signalling system” (UCL BUSINESS PLC, priority 2014, dated 2020).

The test system of assay [1] is SupT1 cells engineered to express CD33. As to the kind of experiment: Activation of BW5 T-cells expressing TetCAR challenged with SupT1 cells engineered to express CD33. The class given is cell-based. As to conditions: increasing concentrations of tetracycline. The text has this:
FIG. 7—Function of the initial TetR construct in comparison with control. (a) TetCAR was expressed in BW5 T-cells. These T-cells were challenged with wild-type SupT1 cells or SupT1 cells engineered to express CD33 in the absence of tetracycline or in the presence of increasing concentrations of tetracycline. […] (b) Control TetCAR which lacks the TiP domain was transduced into BW5. Once again, these T-cells were challenged with wild-type SupT1 cells or SupT1 cells engineered to express CD33 in the absence or in the presence of increasing concentration of Tetracycline.
Signalling through the signalling component may be determined by a variety of methods known in the art. […] Functional readouts, such as clonal expansion of T cells, upregulation of activation markers on the cell surface, differentiation into effector cells and induction of cytotoxicity or cytokine secretion may also be utilised. As an illustration, in the present examples the inventors determined levels of interleukin-2 (IL-2) produced by T-cells expressing a receptor component and signalling component of the CAR system according to the present invention upon binding of antigen to the receptor component in the presence of varying concentrations of an agent. […]

A further assay has as its target streptavidin (Streptomyces avidinii, UniProt P22629). As to conditions: biotin mimicking peptide binding streptavidin; read-out: affinity; cited from earlier work.

Sequence of streptavidin (P22629 37-163): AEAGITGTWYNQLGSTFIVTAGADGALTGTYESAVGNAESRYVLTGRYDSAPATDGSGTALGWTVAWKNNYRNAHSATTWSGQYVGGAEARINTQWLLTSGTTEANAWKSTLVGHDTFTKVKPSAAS

In the case of `CN(C)[C@@H]1C(O)=C(C(N)=O)C(=O)[C@@]2(O)C(O)=C3C(=O)c4c(O)cccc4[C@@](C)(O)[C@H]3C[C@@H]12` [tetracycline], the “concentration of tetracycline at which activation is fully inhibited” value in assay [1] is given as 100 nM.

In the case of “Biotin mimicking peptide CHPQGPPC (SEQ ID NO: 9) (Biotin mimicking peptide, ccstreptag)”, the Kd in the assay with streptavidin was 0.23 µM.

Turning to “Biotin mimicking peptide DVEAWLDERVPLVET (SEQ ID NO: 4) (Biotin mimicking peptide, long nanotag)”, the Kd with streptavidin is 0.0036 µM.

“Biotin mimicking peptide DVEAWLGAR (SEQ ID NO: 5) (Biotin mimicking peptide, short nanotag)”: the Kd in the assay with streptavidin is 0.017 µM.

With “Biotin mimicking peptide WSHPQFEK (SEQ ID NO: 7) [streptag II]”, in the assay with streptavidin, the Kd was 72 µM.
